In one assay the target is Ad293 STEAP3-2. Briefly: flow cytometry cell binding; Ad293 STEAP3-2 chimera cells; affinity calculated from EC50.
The target in another assay is Ad293 Murine STEAP3-2. As to the kind of experiment: flow cytometry cell binding; Ad293 murine STEAP3-2 chimera cells; affinity calculated from EC50.

B1: 40A3 scFv-Fc (Fc fusion)
scFv: EIVMTQSPATLSVSPGERATLSCRASQSVNSNLAWYQQKPGQAPRLLIYGASTRATGIPARFSGSGSGTEFTLTISSLQSEDFAVYYCQQYNNWPFTFGPGTKVDIKGGGGSGGGGSGGGGSGGGGSQVQLQQSGPGLVKPSQTLSLTCAISGDSVSRNSAVWNWIRQSPSRGLEWLGRTYYRSKWYNDYAVSVKSRITINPDTSKNQFSLQVNSVTPEDTAVYYCARGLLQNNFYYYMDVWGKGTTVTVSS
Usually EC50 stands for the concentration needed to bring the measured effect to its halfway point. B1: the EC50 in the assay with Ad293 STEAP3-2 is 20.2 nM; with Ad293 Murine STEAP3-2, 28.2 nM.

These data come from patent publication US20230192803A1 (published 2023).
